{
  "source": "patent US20170058007A1",
  "about": "(University of California, published 2017)",
  "proteins": {"B1": {"name": "WT SBAFP (other)", "chain": "DGTCVNTNSQITANSQCVKSTATNCYIDNSQLVDTSICTRSQYSDANVKKSVTTDCNIDKSQVYLTTCTGSQYNGIYIRSSTTTGTSISGPGCSISTCTITRGVATPAAACKISGCSLSAM", "notes": "Gene in pET20b from the Davies lab, expressed in E. coli; also called wild type spruce budworm antifreeze protein; isozyme 501"}},
  "target": "the molecule itself",
  "assay": "AFM imaging on mica (self-association, not fibrils)",
  "protocol": "Pieces of 8.0 mm×8.0 mm×0.5 mm muscovite mica were cut and mounted on standard microscope slides using composite epoxy glue (5 Minute Epoxy, ITW Performance Polymers and Fluids, FL. USA). Before protein deposition, the top layer(s) of mica was peeled mechanically to expose fresh (0001) surfaces. For SBAFP-m1 or wild type WT SBAFP, 20 μl of sample in Tris buffer (100 mM, pH8.0) were deposited on the freshly exposed mica(0001) surfaces. After 5 min incubation, the surfaces were washed three times with 200 μl Tris buffer (100 mM, pH 8.0) to remove weakly bound proteins and fibrils. The samples were immediately imaged in the Tris buffer. Sample preparation for RGAFP-m1 or WT RGAFP followed similar protocols except for the surface coating and imaging medium. The freshly cleaved mica(0001) surfaces were coated with poly-L-Lysine, by dropping 80 μl 0.1% (w/v) poly-L-Lysine (Sigma P8920, MW 150-300 kDa) onto the surface, incubating for 5 min, then washing with MilliQ water. The surfaces were dried with clean air before protein deposition. The samples were imaged under ambient conditions.\nThe formation of fibers by SBAFP-m1 was analyzed after 48 h and 3 weeks of incubation at 37° C. […] The expansion (FIG. 10A inset) allows an accurate height determination of 1.5-3 nm, but predominantly between 2.5 and 3 nm. […]",
  "data": [
    {"protein": "B1", "values": [
      {"measurement": "binding result", "value": "binds"}
    ]}
  ]
}
